Legend:
[1] = molecular target: T1, human BAFF (10056-HNCH, Sino biological) (human, UniProt Q9Y275 134-285); test: competition ELISA: biotin-labeled BAFF to coated BAFF-R
T1 construct: Bought protein
Method: The blocking activity of the antibodies and the fusion proteins for receptors and ligands such as BAFF/BAFF-R, BAFF/BCMA, BAFF/TACI, APRIL/BCMA, APRIL/TACI, and p40/IL-12R1 was assayed by the ELISA method. The specific procedures were as follows:
A receptor protein was diluted to 2 μg/mL with PBS at pH 7.4 (BasalMedia, B320) and added to a 96-well microplate (Corning, 3590) at 100 μL/well. The plate was incubated at 4° C. overnight. After the liquid was discarded, 200 μL of 1% Casein blocking solution (Thermo, 37528) was added to each well for blocking, and the plate was incubated at 37° C. for 2 h. After the blocking was completed, the blocking solution was discarded, and the plate was washed 3 times with a PBST buffer (PBS at pH 7.4 containing 0.1% tween-20) for later use. A biotin-labeled ligand protein at a fixed concentration was mixed with the antibody or fusion protein diluted in gradient, pre-incubated at 37° C. for 30 min, and added to a blocked microplate. The plate was incubated at 37° C. for 1.5 h. After the incubation was completed, the plate was washed 3 times with PBST. 100 μL of streptavidin-HRP (Invitrogen, 434323, diluted at a ratio of 1:4000) was added to each well, and the plate was incubated at 37° C. for 1 h. The supernatant was removed, and the plate was washed 3 times with PBST. 100 μL of TMB chromogenic substrate (KPL, 5120-0077) was added to each well, and the plate was incubated at room temperature for 10-15 min. The reaction was stopped by adding 50 μL of 1 M H₂SO₄ to each well. The plate was read for absorbance values at 450 nm on a microplate reader, the curves for the inhibition of the binding of the ligands to the receptors were fitted with software, and the IC₅₀ values were calculated.

[2] = molecular target: T2, BAFF (ACROBiosystems, BAF-H5248) (UniProt Q9Y275 134-285); test: ELISA, fusion protein coated, BAFF titrated, Anti-His-HRP
T2 construct: Bought protein used in the ELISA with coated test sample
Method: The binding activity of the TACI fusion proteins for BAFF and APRIL was assayed by the ELISA method (coating a test fusion protein sample). The specific procedures were as follows:
The test sample was diluted to 2 μg/mL with a PBS (BasalMedia, B320) buffer at pH 7.4 and added to a 96-well microplate (Corning, 3590) at 100 μL/well. The plate was incubated at 4° C. overnight. After the liquid was discarded, 300 μL of 5% skim milk (BD, 232100) diluted with PBS was added to each well for blocking, and the plate was incubated at 37° C. for 2 h. After the blocking was completed, the blocking solution was discarded, and the plate was washed 3 times with a PBST buffer (PBS at pH 7.4 containing 0.1% tween-20). 100 μL of BAFF (ACROBiosystems, BAF-H5248) or APRIL (R&D Systems, 5860-AP-010/CF) diluted in a gradient was added to each well, and the plate was incubated at 37° C. for 1 h. After the incubation, the plate was washed 3 times with PBST. When detecting the binding to BAFF, 100 μL of Anti-His-HRP (Sino biological, 105327-MM02T-H, diluted at a ratio of 1:2000) was added to each well; when detecting the binding to APRIL, 100 μL of anti-HA-HRP (Abcam, ab1190, diluted at a ratio of 1:4000) was added to each well. The plate was incubated at 37° C. for 1 h. The plate was washed 3 times with PBST. 100 μL of TMB chromogenic substrate (KPL, 5120-0077) was added to each well, and the plate was incubated at room temperature for 10-15 min. The reaction was stopped by adding 50 μL of 1 M H₂SO₄ to each well. The plate was read for absorbance values at 450 nm on a microplate reader, the binding curves of the antibodies to an antigen were fitted with software, and the EC₅₀ values were calculated.

[3] = molecular target: BAFF (R&D Systems, 7537-BF) (UniProt Q9Y275 134-285); test: cell-based or functional assay
[4] = molecular target: T3, human APRIL (5860-AP-010/CF, R&D Systems) (human, UniProt O75888 115-250, limits assumed); test: cell-based or functional assay
T3 sequence (looked up): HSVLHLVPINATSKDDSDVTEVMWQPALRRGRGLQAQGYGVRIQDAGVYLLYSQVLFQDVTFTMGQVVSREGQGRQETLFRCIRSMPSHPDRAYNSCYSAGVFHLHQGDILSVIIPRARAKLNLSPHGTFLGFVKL

B1: TACI-9-15Fc5 fusion protein (Fc fusion)
chain: STSCREEQGEFYDHLLRDCISCASICGQHPKQCAAFCEDKTHTCPPCPAPEAEGAPSVFLFPPKPKDTLMISRTPEVTCVVVDVSHEDPEVKFNWYVDGVEVHNAKTKPREEQYNSTYRVVSVLTVLHQDWLNGKEYKCKVSNKALPSSIEKTISKAKGQPREPQVYTLPPSRDELTKNQVSLTCLVKGFYPSDIAVEWESNGQPENNYKTTPPVLDSDGSFFLYSKLTVDKSRWQQGNVFSCSVMHEALHNHYTQKSLSLSPGK
notes: Full-length chain
Binder B1 has an IC50 [1] of 1.44 nM and an EC50 [2] of 8.89 nM.

B2: TACI-9-15Fc8 fusion protein (Fc fusion)
chain: STSCREEQGEFYDHLLRDCISCASICGQHPKQCAAFCEEPKSSDKTHTCPPCPAPEAEGAPSVFLFPPKPKDTLMISRTPEVTCVVVDVSHEDPEVKFNWYVDGVEVHNAKTKPREEQYNSTYRVVSVLTVLHQDWLNGKEYKCKVSNKALPSSIEKTISKAKGQPREPQVYTLPPSRDELTKNQVSLTCLVKGFYPSDIAVEWESNGQPENNYKTTPPVLDSDGSFFLYSKLTVDKSRWQQGNVFSCSVMHEALHNHYTQKSLSLSPGGGGSSTSCREEQGEFYDHLLRDCISCASICGQHPKQCAAFCESK
notes: Full-length chain
B2 was tested, and the “IC50 (nM) for the inhibition of the BAFF-induced B cell proliferation” value [3] was 0.0291 nM, the “IC50 (nM) for the inhibition of the APRIL-induced B cell proliferation” value [4] was 0.00477 nM and the IC50 [1] was 1.56 nM. It also gave an EC50 [2] of 10.5 nM.

B3: TACI-9-15Fc7 fusion protein (Fc fusion)
chain: STSCREEQGEFYDHLLRDCISCASICGQHPKQCAAFCEEPKSSDKTHTCPPCPAPEAEGAPSVFLFPPKPKDTLMISRTPEVTCVVVDVSHEDPEVKFNWYVDGVEVHNAKTKPREEQYNSTYRVVSVLTVLHQDWLNGKEYKCKVSNKALPSSIEKTISKAKGQPREPQVYTLPPSRDELTKNQVSLTCLVKGFYPSDIAVEWESNGQPENNYKTTPPVLDSDGSFFLYSKLTVDKSRWQQGNVFSCSVMHEALHNHYTQKSLSLSPGGGGSSTSCREEQGEFYDHLLRDCISCASICGQHPKQCAAFCEQK
notes: Full-length chain
For B3, the “IC50 (nM) for the inhibition of the BAFF-induced B cell proliferation” value [3] was 0.0244 nM, the “IC50 (nM) for the inhibition of the APRIL-induced B cell proliferation” value [4] was 0.00481 nM and the IC50 [1] was 1.38 nM. For the same binder, the EC50 [2] was 8.95 nM.

B4: TACI-9-15Fc9 fusion protein (Fc fusion)
chain: STSCREEQGEFYDHLLRDCISCASICGQHPKQCAAFCEEPKSSDKTHTCPPCPAPEAEGAPSVFLFPPKPKDTLMISRTPEVTCVVVDVSHEDPEVKFNWYVDGVEVHNAKTKPREEQYNSTYRVVSVLTVLHQDWLNGKEYKCKVSNKALPSSIEKTISKAKGQPREPQVYTLPPSRDELTKNQVSLTCLVKGFYPSDIAVEWESNGQPENNYKTTPPVLDSDGSFFLYSKLTVDKSRWQQGNVFSCSVMHEALHNHYTQKSLSLSPGGGGSSTSCREEQGEFYDHLLRDCISCASICGQHPKQCAAFCESS
notes: Full-length chain
For B4, the “IC50 (nM) for the inhibition of the BAFF-induced B cell proliferation” value [3] was 0.0262 nM, the “IC50 (nM) for the inhibition of the APRIL-induced B cell proliferation” value [4] was 0.00947 nM and the IC50 [1] was 1.19 nM. For the same binder, the EC50 [2] was 8.94 nM.

B5: TACI-9-15Fc6 fusion protein (Fc fusion)
chain: STSCREEQGEFYDHLLRDCISCASICGQHPKQCAAFCEEPKSSDKTHTCPPCPAPEAEGAPSVFLFPPKPKDTLMISRTPEVTCVVVDVSHEDPEVKFNWYVDGVEVHNAKTKPREEQYNSTYRVVSVLTVLHQDWLNGKEYKCKVSNKALPSSIEKTISKAKGQPREPQVYTLPPSRDELTKNQVSLTCLVKGFYPSDIAVEWESNGQPENNYKTTPPVLDSDGSFFLYSKLTVDKSRWQQGNVFSCSVMHEALHNHYTQKSLSLSPGK
notes: Full-length chain
B5 was tested, and the “IC50 (nM) for the inhibition of the BAFF-induced B cell proliferation” value [3] was 0.0481 nM, the “IC50 (nM) for the inhibition of the APRIL-induced B cell proliferation” value [4] was 0.14 nM and the IC50 [1] was 1.87 nM. It also gave an EC50 [2] of 8.48 nM.

— US20240301031A1 (JIANGSU HENGRUI PHARMACEUTICALS, published 2024)
